Test results as given in patent CN112574297A.

Molecular target: H7N9病毒的神经氨酸酶(NA) (avian influenza virus H7N9)
Assay: cell-based or functional assay

B1: 抗禽流感H7N9神经氨酸酶抗原的单克隆抗体D3 (antibody, V domains shown)
VH: IQVKLQESGPELVKPGASVKISCKASGYSFTGYYMHWVKQSHVKSLQWIGRINPYNGATSYNQNFKDKASLTVDKSSSTAYMELHSLTSEDSAVYYCARSGNYAMDYWGQGTTVTVSS
VL: DIELTQSPASLAVSLGQRATISYRASKSVSTSGYSYMHWNQQKPGQPPRLLIYLVSNLESGVPARFSGSGSGTDFTLNIHPVEEEDAATYYCQHIRELTRSEGGPSSRSN
  NA活性抑制IC50 (酶联凝集素法 ELLA): 5.22 µg/mL
